Laboratory results as given in the supplement of paper PMC7877785.
± gives the uncertainty stated by the source.

Test: self-splicing fitness, log relative to wild type (ln ratio); higher = more splicing; Tetrahymena group I intron in knt gene, E. coli kanamycin selection, DiMSum; sequences stand for … in CUCUCU…GGAGGGAAAAGUUAUCAGGCAUGCACCUGGUAGCUAGUCUUUAAACCAAUAGAUUGCAUCGGUUUAAAAGGCAAGACCGUCAAAUUGCGGGAAAGGGGUCAACAGCCGUUCAGUACCAAGUCUCAGGGGAAACUUUGAGAUGGCCUUGCAAAGGGUAUGGUAAUAAGCUGACGGACAUGGUCCUAACCACGCAGCCAAGUCCUAAGUCAACAGAUCUUCUGUUGAUAUGGAUGCAGUUCACAGACUAAAUGUCGGUCGGGGAAGAUGUAUUCUUCUCAUAAGAUAUAGUCGGACCUCUCCUUAAUGGGAGCUAGCGGAUGAAGUGAUGCAACACUGGAGCCGCUGGGAACUAAUUUGUAUGCGAAAGUAUAUUGAUUAGUUUUGGAGUACUCGUGGUCG
Procedure, shortened: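 Fitness was computed with DiMSum as the error-weighted combination of replicate fold changes, kanamycin versus none, each normalised to wild type. The library randomised all eight intron nucleotides of the P1ex region, with the intron placed in the knt kanamycin-resistance gene on pET-22b(+) in E. coli BL21(DE3). Six replicate transformations were grown overnight at 37°C or 30°C on LB agar with or without 25 μg/mL kanamycin, plus 100 μg/mL carbenicillin, 50 μM IPTG and 0.2% rhamnose. Pooled colonies were amplicon-sequenced on an Illumina HiSeq 2500.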

Row | Sequence | self-splicing fitness (ln) (37 °C) | self-splicing fitness (ln) (30 °C)
1 | CUGUAGCAAUAUUACGCUGG | -0.992 ± 0.34 | –
2 | CUGUAGCAAUAUUACGGAGG | -2.64 ± 0.26 | -4.1 ± 0.27
3 | CUGUAGCAAUAUUACGGAUG | -0.812 ± 0.18 | -3.23 ± 0.27
4 | CUGUAGCAAUAUUACGGUAC | -2.59 ± 0.28 | –
5 | CUGUAGCAAUAUUACGGUGG | -1.49 ± 0.11 | -3.05 ± 0.14
6 | CUGUAGCAAUAUUACGUAGC | -2.93 ± 0.32 | -5.54 ± 0.36
7 | CUGUAGCAAUAUUACGUAUA | -2.67 ± 0.28 | -3.03 ± 0.4
8 | CUGUAGCAAUAUUACGUCAC | – | -3.21 ± 0.24
9 | CUGUAGCAAUAUUACGUCAU | -3.14 ± 0.24 | -4.07 ± 0.3
10 | CUGUAGCAAUAUUACGUGUU | -0.79 ± 0.13 | -4.29 ± 0.17
11 | CUUAAGCAAUAUUACGAACG | 0.187 ± 0.14 | -0.163 ± 0.11
12 | CUUAAGCAAUAUUACGACCU | – | -1.75 ± 0.39
13 | CUUAAGCAAUAUUACGCAUU | -1.92 ± 0.17 | -3.82 ± 0.2
14 | CUUAAGCAAUAUUACGCGAG | -3.57 ± 0.33 | -4.13 ± 0.34
15 | CUUAAGCAAUAUUACGCUCA | -2.01 ± 0.5 | -2.78 ± 0.22
16 | CUUAAGCAAUAUUACGCUUG | -2.78 ± 0.31 | -4.19 ± 0.39
17 | CUUAAGCAAUAUUACGCUUU | -2.26 ± 0.15 | -3.13 ± 0.11
18 | CUUAAGCAAUAUUACGGACC | -0.536 ± 0.36 | –
19 | CUUAAGCAAUAUUACGGCCA | – | -2.95 ± 0.44
20 | CUUAAGCAAUAUUACGGUUC | -3.1 ± 0.26 | -4.11 ± 0.19
21 | CUUAAGCAAUAUUACGUGAU | -0.627 ± 0.093 | -2.63 ± 0.092
22 | CUUAAGCAAUAUUACGUUGA | -2.78 ± 0.29 | –
23 | CUUCAGCAAUAUUACGAACC | -1.18 ± 0.35 | -1.67 ± 0.41
24 | CUUCAGCAAUAUUACGAAUC | -1.06 ± 0.19 | -1.04 ± 0.2
25 | CUUCAGCAAUAUUACGACAA | -2.52 ± 0.31 | -2.42 ± 0.21

Row | Sequence | self-splicing fitness (ln) (37 °C) | self-splicing fitness (ln) (30 °C)
26 | CUUCAGCAAUAUUACGACGG | -0.57 ± 0.23 | -2.16 ± 0.13
27 | CUUCAGCAAUAUUACGAGCA | -2.16 ± 0.28 | –
28 | CUUCAGCAAUAUUACGAUCU | -2.88 ± 0.35 | -2.86 ± 0.39
29 | CUUCAGCAAUAUUACGAUUA | -1.55 ± 0.22 | -3.05 ± 0.41
30 | CUUCAGCAAUAUUACGCCUU | -3.25 ± 0.25 | -2.35 ± 0.15
31 | CUUCAGCAAUAUUACGCGCC | -1.92 ± 0.24 | -3.28 ± 0.3
32 | CUUCAGCAAUAUUACGCGCU | -1.96 ± 0.46 | –
33 | CUUCAGCAAUAUUACGCGGC | -1.01 ± 0.19 | -3.24 ± 0.36
34 | CUUCAGCAAUAUUACGCGUU | -2.7 ± 0.21 | -2.33 ± 0.12
35 | CUUCAGCAAUAUUACGCUAU | -1.99 ± 0.25 | -3.33 ± 0.37
36 | CUUCAGCAAUAUUACGCUGG | -2.15 ± 0.14 | -3.83 ± 0.21
37 | CUUCAGCAAUAUUACGGAAA | -1.16 ± 0.15 | -1.17 ± 0.18
38 | CUUCAGCAAUAUUACGGAAG | -2.4 ± 0.2 | -4.18 ± 0.28
39 | CUUCAGCAAUAUUACGGAUG | -0.191 ± 0.1 | -1.48 ± 0.069
40 | CUUCAGCAAUAUUACGGCAG | -0.351 ± 0.14 | -0.556 ± 0.12
41 | CUUCAGCAAUAUUACGGCGU | -1.8 ± 0.17 | -4.44 ± 0.24
42 | CUUCAGCAAUAUUACGGCUC | -2.51 ± 0.35 | -3.8 ± 0.37
43 | CUUCAGCAAUAUUACGGCUG | -2.65 ± 0.47 | -3.75 ± 0.34
44 | CUUCAGCAAUAUUACGGUAG | -0.92 ± 0.14 | -1.94 ± 0.12
45 | CUUCAGCAAUAUUACGGUUA | -1.08 ± 0.2 | -1.58 ± 0.19
46 | CUUCAGCAAUAUUACGUAGU | -2.5 ± 0.19 | -4 ± 0.16
47 | CUUCAGCAAUAUUACGUCGU | -2.88 ± 0.12 | -4.07 ± 0.14
48 | CUUCAGCAAUAUUACGUGAC | -3.05 ± 0.37 | -4.76 ± 0.46
49 | CUUCAGCAAUAUUACGUGCC | – | -3.44 ± 0.31
50 | CUUCAGCAAUAUUACGUGCU | -2.6 ± 0.13 | -3.07 ± 0.12
